Values joined by “and” are separate entries in the source; they are usually repeats but may differ in a detail not shown here. Identical values can stand only once.
Molecular target: GLP-1 receptor
Test: cell-based or functional assay

| Substance | In Vitro Activity (% of Val^8-GLP-1) (% of Val^8-GLP-1) | GLP-1 Receptor Activation (fold of GLP-1(7-37)OH) |
| --- | --- | --- |
| Gly^8-GLP-1-IgG1 (from UniProt P01857 99-330) (Fc fusion) | 3.3 | – |
| Val^8-Glu^22-Val^25-Ile^33-GLP-1(7-37)OH (peptide) | – | 2.3 and 2.73 and 3.15 |
| Val^8-Lys^33-Asn^34-GLP-1(7-37)OH (peptide) | – | 0.09 |
| Val^8-Trp^16-Glu^22-Ile^33-GLP-1(7-37)OH (peptide) | – | 1.93 |
| Val^8-Trp^16-Glu^22-Val^25-GLP-1(7-37)OH (peptide) | – | 2.07 |
